Laboratory results reported in patent US5444153, “Variants of PAI-2” (Biotech Australia Pty Limited, dated 1995).
Changes are numbered by the printed parent chain.

Legend:
Test in all cases: incubation of the purified proteins; SDS-PAGE and western blot with anti-PAI-2
[1] = target: u-PA (Behring) (Homo sapiens (Human), UniProt P00749)
[2] = target: two chain t-PA (American Diagnostica) (Homo sapiens (Human), UniProt P00750)
[3] = target: single chain t-PA (American Diagnostica) (Homo sapiens (Human), UniProt P00750)

B1: PAI-2 deletion variant Δ74-96 (as expressed from pBTA829) (other)
chain: MEDLCVANTLFALNLFKHLAKASPTQNLFLSPWSISSTMAMVYMGSRGSTEDQMAKVLQFNEVGANAVTPMTPAQAADKIHSSFRSLSSAINASTGNYLLESVNKLFGEKSASFREEYIRLCQKYYSSEPQAVDFLECAEEARKKINSWVKTQTKGKIPNLLPEGSVDGDTRMVLVNAVYFKGKWKTPFEKKLNGLYPFRVNSAQRTPVQMMYLREKLNIGYIEDLKAQILELPYAGDVSMFLLLPDEIADVSTGLELLESEITYDKLNKWTSKDKMAEDEVEVYIPQFKLEEHYELRSILRSMGMEDAFNKGRANFSGMSERNDLFLSEVFHQAMVDVNEEGTEAAAGTGGVMTGRTGHGGPQFVADHPFLFLIMHKITNCILFFGRFSSP
- binding result [1]: binds
- binding result [2]: binds
- binding result [3]: binds

B2: native PAI-2 (as expressed from pBTA641) (other)
chain: MEDLCVANTLFALNLFKHLAKASPTQNLFLSPWSISSTMAMVYMGSRGSTEDQMAKVLQFNEVGANAVTPMTPENFTSCGFMQQIQKGSYPDAILQAQAADKIHSSFRSLSSAINASTGNYLLESVNKLFGEKSASFREEYIRLCQKYYSSEPQAVDFLECAEEARKKINSWVKTQTKGKIPNLLPEGSVDGDTRMVLVNAVYFKGKWKTPFEKKLNGLYPFRVNSAQRTPVQMMYLREKLNIGYIEDLKAQILELPYAGDVSMFLLLPDEIADVSTGLELLESEITYDKLNKWTSKDKMAEDEVEVYIPQFKLEEHYELRSILRSMGMEDAFNKGRANFSGMSERNDLFLSEVFHQAMVDVNEEGTEAAAGTGGVMTGRTGHGGPQFVADHPFLFLIMHKITNCILFFGRFSSP
- binding result [2]: binds
- binding result [3]: binds

B3: second form of native PAI-2 (alternative native PAI-2, expressed from pBTA 683) (other)
chain: B2 chain with N120D, N404K, S413C
- binding result [2]: binds
- binding result [3]: binds
